Data on 2 molecules can be found in patent US20160208003A1 (AFFITECH RESEARCH, published 2016).

Usually IC50 stands for the midpoint of a concentration-inhibition curve. Lower therefore signals greater potency.

Assay [1] concerns the target T1, human CC chemokine receptor 4 (CCR4) (human, UniProt P51679 1-360).
T1 construct: whole, on cells; Always presented on cells; also called CD194; human CCR4
T1 sequence (looked up): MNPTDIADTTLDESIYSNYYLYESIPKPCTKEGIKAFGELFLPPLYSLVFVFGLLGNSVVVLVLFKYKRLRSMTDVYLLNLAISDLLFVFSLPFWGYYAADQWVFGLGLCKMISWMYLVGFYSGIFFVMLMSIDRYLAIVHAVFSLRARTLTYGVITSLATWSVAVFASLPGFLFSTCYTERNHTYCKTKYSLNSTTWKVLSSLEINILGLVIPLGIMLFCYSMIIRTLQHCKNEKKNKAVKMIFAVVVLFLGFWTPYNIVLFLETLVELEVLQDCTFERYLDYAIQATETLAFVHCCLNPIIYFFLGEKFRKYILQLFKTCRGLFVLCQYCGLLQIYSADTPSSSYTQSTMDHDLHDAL
As to the kind of experiment: flow cytometry competition on DT-40-CCR4+ cells; unlabelled IgG titrated, competitor 3.3 nM biotinylated IgG 9E. How it is done: (§1) Further competition experiments were carried out to assess whether or not the test antibodies recognise the same or overlapping epitopes, and to determine their relative affinities for CCR4. Antibodies 9E10J, 9E and KM3060var were tested using labelled 9E as a competitor.
(§2) DT40 and CCRF-CEM cells were cultivated as described in Example 2. The cells were harvested from culture flasks, washed 2 times with PBS (400×g, 5 min, 4° C.) and resuspended in PBS containing 0.2% BSA and 0.09% NaN3. 1×10^5 cells per well were aliquoted into V-shaped 96-well plates (Griner Bio-One, Frikenhausen, Germany). Cells were centrifuged (400×g, 5 min, 4° C.) and resuspended in 50 μl IgG 9E10J or KM3060var (dilution series starting at 5 μg/ml) mixed with biotinylated competitor antibody 9E (0.1 or 0.5 μg/ml). The cells were incubated for 2 hours at 4° C., mixing with a pipette every 45 min. The cells were washed three times with 150 μl PBS with 0.2% BSA and 0.09% NaN3 and stained with 3 μg/ml streptavidin PE (BD Biosciences) for 45 minutes at 4° C. Cells were washed, resuspended in 200 μl PBS with 0.2% BSA and 0.09% NaN3, and transferred to a U-shaped 96 well Costar (Corning, Schiphol-Rijik, The Netherlands) plate for flow cytometry using an FACS Canto II flow cytometer (BD Biosciences, Heidelberg, Germany).
In general terms: In flow cytometry, cells or beads pass a laser one at a time.

Assay [2] has as its target T1, human CC chemokine receptor 4 (CCR4). As to the kind of experiment: flow cytometry competition on DT-40-CCR4+ cells; unlabelled IgG titrated, competitor 0.7 nM biotinylated IgG 9E. How it is done:
as §1, §2

Assay [3] shares this target. As to the kind of experiment: cell-based or functional assay.
Assay [4] addresses T2, mouse CCR4 (mouse, UniProt P51680 1-360).
T2 construct: whole, on cells; also called murine CCR4
T2 sequence (looked up): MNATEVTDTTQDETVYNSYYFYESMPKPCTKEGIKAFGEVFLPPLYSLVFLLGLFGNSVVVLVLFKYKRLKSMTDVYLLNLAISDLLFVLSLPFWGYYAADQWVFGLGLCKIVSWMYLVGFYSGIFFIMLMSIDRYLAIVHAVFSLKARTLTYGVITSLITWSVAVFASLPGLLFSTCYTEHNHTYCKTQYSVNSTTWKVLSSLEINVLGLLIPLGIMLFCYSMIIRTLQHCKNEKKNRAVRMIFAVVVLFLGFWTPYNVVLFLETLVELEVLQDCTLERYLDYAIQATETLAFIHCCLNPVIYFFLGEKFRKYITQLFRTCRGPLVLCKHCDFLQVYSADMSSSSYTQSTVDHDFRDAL
Put plainly: flow cytometry on HEK-293T/17 cells transiently transfected with mouse CCR4, anti-human-IgG-PE detection. How it is done:
For transient transfection, Hek293T/17 cells were seeded as 2×10^6 cells in a T75 (NUNC) flask. 48 h after seeding, the cells were transfected with Fugene (ROCHE). 40 μl Fugene and 16 μg DNA are used per T75. The cells were used for assays 48 h after transfection.
HEK-293T/17 cells, were transiently transfected either with pcDNA3.1 plasmid encoding human CCR4 or with pLNO plasmids (Norderhaug et al, 1997) encoding either mouse (GeneBank CAA62372) or monkey (Macaca mulatta) CCR4 (PubMed access number XP_001098807) using Fugene (Roche) as a transfection reagent. Non-transfected (CCR4 negative) cells served as a negative control. The cells were cultivated further for 48 hours under regular conditions described above. The cells were washed twice with PBS, detached from the culture flasks by incubating with Accutase (PAA laboratories, Linz, Austria) for 3 minutes at room temperature. The cells were then washed 2 times with PBS (400×g, 5 min, 4° C.) and resuspended in PBS containing 0.2% BSA and 0.09% NaN₃. 1×10⁵ cells per well were aliquoted into V-shaped 96-well plates (Griner Bio-One, Frikenhausen, Germany). Cells were centrifuged (400×g, 5 min, 4° C.) and resuspended in 50 μl of 10 μg/ml 9E or 9E10J, in PBS containing 0.2% BSA and 0.09% NaN3. The cells were incubated further at 4° C. for 60 min. The samples were then washed twice by centrifugation and re-suspension in 100 μl FACS buffer. […]

B1: 9E10J IgG (full length human IgG1, lambda) (antibody, V domains shown)
VH: QVQLVQSGAEVKKPGSSVKVSCKASGGTFSSYAISWVRQAPGQGLEWMGGIIPIFGTANYAQKFQGRVTMTRDTSTSTVYMELSSLRSEDTAVYYCARRGGSYFDYWGQGTLVTVSS
VL: SYVLTQPPSASGTPGQSVTISCSGSTSNIGSHYVFWYQQLPGTAPRLLIYRNHQRPSGVPDRLSGSKSGTSASLAISGLRSEDEADYYCAVWDDTLSGWVFGGGTKLTVLG
notes: also called IgG 9E10J; unmodified 9E10J
Take B1: the values for the IC50 in assay [1] and in assay [2] were 0.15 nM and 0.06 nM, respectively. In addition, in assay [3], the “ADCC of CCRF-CEM cells, EC50 (mean, N=5)” value amounted to 0.0247 µg/mL. In addition, the binding result in assay [4] is recorded as “no binding (tested: 10 µg/ml)”.

B2: 9E IgG (full length human IgG1, lambda) (antibody, V domains shown)
VH: QVQLVQSGAEVKKPGSSVKVSCKASGGTFSNYAISWVRQAPGQGLEWMGGIIPIFGTANYAQKFQGRVTITADESTSTAYMELSSLRSEDTAVYYCARRGGSYFDYWGQGTLVTVSS
VL: SYVLTQPPSASGTPGQSVTISCSGSTSNIGSHYVFWYQQLPGTAPRLLIYRNHQRPSGVPDRLSGSKSGTSASLAISGLRSEDEADYYCAVWDDTLSGWVFGGGTKLTVLG
notes: also called IgG 9E; IgG1 9E
As for B2, the IC50 in assay [1] was found to be 3.5 nM; in assay [2] it was 0.44 nM. Also, the “ADCC of CCRF-CEM cells, EC50 (mean, N=2)” value in assay [3] is 0.186 µg/mL. Also, the binding result in assay [4] was “no binding (tested: 10 µg/ml)”.
